Data as given in the supplement of paper PMC9170038.

Tested on: MS2 coat protein
Test: apparent KD of MS2 coat protein; designed switch direction (-1 OFF switch, 1 ON switch): 1; higher = weaker reporter binding
Outline: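 Apparent KD, taken as the median over clusters for each design, was obtained by curve-fitting normalised cluster fluorescence. Designed RNA switches had been transcribed on Illumina chips by stalled E. coli RNA polymerase and titrated with SNAP-549-labelled MS2 coat protein, doubling from 0.7 or 1.5 nM to 3 µM.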

[1] = Eterna round: R95, input ligand: FMN 200 uM
[2] = Eterna round: R95, input ligand: microRNA oligo, concentration not stated
[3] = Eterna round: R95, input ligand: none
[4] = input ligand: microRNA oligo, concentration not stated

| Sequence | apparent KD of MS2 coat protein [1] [nM] | apparent KD of MS2 coat protein [2] [nM] | apparent KD of MS2 coat protein [3] [nM] | apparent KD of MS2 coat protein (input ligand: FMN 200 uM) [nM] | apparent KD of MS2 coat protein [4] [nM] | apparent KD of MS2 coat protein (input ligand: none) [nM] |
| --- | --- | --- | --- | --- | --- | --- |
| AACAUUCUAUCUCAGGAUAUCAUGUCAAAGACAUGAGGAUCACCCAUGUACCAGGAAACUGGUUAUGAGAAGGGAGAUAGAAUGA [Mat - Same State 2 - Mod - D45] (puzzle: Same State 2) | 114 | 89.4 | 162 |  |  |  |
| GGUUUAGUCAAGUGCCGUUGCACUUGAAAACAUGAGGAUCACCCAUGUUCGGGACAAGCUUUGCUCCUCGUCUUUCC [Geisedor] (puzzle: Sensor for hsa-mir-208a) | 255 | 50.2 | 389 |  |  |  |
| ACAUGAGAGAUAGGAUAUUUUGUACCUACAUGUGACAUGAGGAUCACCCAUGUGGUAAGUAUGAGAAAGAAGGAUCAGAUAUGU [Equivalance 52 - Jieux - Same State NG 2] (Eterna round: R96, puzzle: Same State NG 2) |  |  |  | 26.3 | 63.7 | 79.8 |
| AGUCCAGCCUGAGCUGGACAAAAGCAUGUACAUGAGGAUCACCCAUGUCAUGUACAAGCUUUUUGCUCGUCUUAAGA [Mat - hsa-mir-208a - Mod of JL - D21] (Eterna round: R96, puzzle: Sensor for hsa-mir-208a) |  |  |  | 806 | 16.2 | 840 |
| AGGAAGGAGACUGAGGAUAUCGUUGAGAGGACAUGAGGAUCACCCAUGUGUAUAGGAUUGGAGAACGAGAAGGCAGAGGAGUGGA [JR_SS2_Sub046] (puzzle: Same State 2) | 50 | 48.5 | 72.4 |  |  |  |
| GGAUGAUGGACAGGAUAUUGAUUUUAAUGGUUUCAAGAAGGGUCUUUGAUUUAAACGACCAGUUACAUGAGGAUCACCCAUGUU [JR_SSNG1_Sub032] (Eterna round: R96, puzzle: Same State NG 1) |  |  |  | 40.1 | 36.1 | 52 |
| CGAUUCGCCAGUACAUGAGGAUCACCCAUGUAGAGACCAGUUUAGGAUAUCUUUGCGACGUGCUGAGAGAAGGGAAUAUGGAGC [Eternabot solution 45] (Eterna round: R96, puzzle: Same State NG 3) |  |  |  | 33.1 | 27.5 | 37.4 |
| UAAAGUUAGCGAGGAUAUCGUUUAUUGAAGUUACGAGAAGGCGCUCUUCUUACAUGAGGAUCACCCAUGUCUGUUUUGCAUGAU [JR_SSNG1_Sub067] (Eterna round: R96, puzzle: Same State NG 1) |  |  |  | 52 | 63 | 71.3 |
| UUCCCAUCGGGAGGAUAUGGUACCUUAUUGGUUCUAGAAGGUCCAACAUGAGGAUCACCCAUGUGGGAGUGGUCUAAUGACCUC [SS NG10LRO04] (Eterna round: R96, puzzle: Same State NG 1) |  |  |  | 247 | 326 | 311 |
| CAUCUAUACGUAGGAUAUGUAGGAUAUUCCUACAUGAGGAUCACCCAUGUUCGCAUGGAAGAAGGACAGAAGGACGAACUACUU [pwkr ssNG2 2FMN + 1F5.7] (Eterna round: R96, puzzle: Same State NG 2) |  |  |  | 320 | 144 | 21.5 |
| AGCGAGAUAGGCAAGGAUAUGCUGAGGUGCACAUGAGGAUCACCCAUGUCAGUGGCGAAAGCGAAGCAGAAGGUGCAUUCUCUUU [ak fifth] (puzzle: Same State 2) | 27.1 | 190 | 332 |  |  |  |
| AUUUAACAAGCUUUUUGCUCGUCUUAUAAACAUGAGGAUCACCCAUGUAAUAGCGUGAGAGUAAAUAUAUAAAUAAU [JMF 85] (puzzle: Sensor for hsa-mir-208a) | 13.8 | 42.2 | 11.9 |  |  |  |
| AGAUGUUAAUCAGGAUAUGGGCACAUGAGGAUCACCCAUGUAAUUUCGAUACUAUGUGGAGACGUCUAGAAGGGAUGGCUAACA [SameState NG2 #85] (Eterna round: R96, puzzle: Same State NG 2) |  |  |  | 162 | 101 | 134 |
| UCUUGGUUUUUGCUCGUUUUUUGUGUUGAACAUGAGGAUCACCCAUGUAUUGUACAAUCCGGUUUGAUGAUGGUCCG [JMF 52] (puzzle: Sensor for hsa-mir-208a) | 57.2 | 44.5 | 54.1 |  |  |  |
| CCGUAAUAUGGAGGAUAUGGAGCCUUAUUGGCUCCAGAAGGUCAAAACAUGAGGAUCACCCAUGUAUCGGCGGUCAAUAGACCG [Eli NG1ss - 74] (Eterna round: R96, puzzle: Same State NG 1) |  |  |  | 42.1 | 53.3 | 91.2 |
| GCUCGAUGAAAGUCCUACAUGAGGAUCACCCAUGUACGUGGGCAGGAUAUUUACAUGCAGAGUGUAGAGAAGGGCCCAUCGAGC [SameState NG3 #61] (Eterna round: R96, puzzle: Same State NG 3) |  |  |  | 18.3 | 50.2 | 76.4 |
| GGAAACAACACAGGAUAUCCAGAUGAUGAUGAAGGAGAAGGGUGUGCCCACAUGAGGAUCACCCAUGUUACAACGAAUAGAUAA [racquet 1] (Eterna round: R96, puzzle: Same State NG 1) |  |  |  | 457 | 666 | 1240 |
| GUGGUCAGACAUGAGGAUCACCCAUGUGGAAUAAAUAACGUACAGGAUAUGCAAUAUAGGAUAUAGUAGAAGGGUAGAUUGGUG (Eterna round: R96, puzzle: Same State NG 3) |  |  |  | 116 | 95 | 123 |
| AGUCCAGCCUGAGCUGGACAAAAGUAUGUACAUGAGGAUCACCCAUGUCAUGUACAAGCUUUUUGCUCGUCUUAAUA [Zipper 49 - 9] (puzzle: Sensor for hsa-mir-208a) | 404 | 24.1 | 511 |  |  |  |
| CCGAUGUGGGUACAGGAUAUGUGGGCCUCCACAUGAGGAUCACCCAUGUCGGAGGCAAUGCGGCUACAGAAGGGUGCGAGCUCGA [Tileorat] (puzzle: Same State 2) | 14.1 | 10.9 | 13.5 |  |  |  |
| AGCUAUUACGAAGGAUAUUGUGACAUGAGGAUCACCCAUGUUUGCAUGAUUAAUUGUGAUCACGUCGAGAAGGUUGUACUAACA [SameState NG2 #31] (Eterna round: R96, puzzle: Same State NG 2) |  |  |  | 26.2 | 20.9 | 29.5 |
| UCAGAGGCGCUAGGAUAUCUCUCCGAGAAGCAGAGAGAAGGAGUGCGGAACCCAAGACCUACAUGAGGAUCACCCAUGUCUCAA [Eternabot solution 27] (Eterna round: R96, puzzle: Same State NG 1) |  |  |  | 22.8 | 22.9 | 38.7 |
| UACAAUCUAUCUGAGGAUAUCAUGAAUAAAACAUGAGGAUCACCCAUGUGCAGGAAAACUGCAUAUGAGAAGGCAGAUAGAUUGA [Mat - Same State 2 - Mod - D12] (puzzle: Same State 2) | 45.9 | 411 | 1450 |  |  |  |
| GUGGUCUGACAUGAGGAUCACCCAUGUGGAAUAAAUACGGGUUAGGAUAUCUUGAGGAUCACCCAAGAGAAGGGAUGGACCGUU (Eterna round: R96, puzzle: Same State NG 3) |  |  |  | 36.3 | 30.9 | 47.5 |
| GGUACCAACACAGGAUAUGCUAUCCUUUGGGUAGCAGAAGGGUGGUACAUGAGGAUCACCCAUGUGGUGCCAGGGCGUGAGCCC [JL SSNG1 1.95] (Eterna round: R96, puzzle: Same State NG 1) |  |  |  | 383 | 1190 | 4440 |
| GGAGCCGGCAGGCAGGAUAUUCAUAUUAAAACAUGAGGAUCACCCAUGUAGGCCAGAAGGCCUUGGGAGAAGGGCCAUCGGCUCG [Xeonanis - 13] (puzzle: Same State 2) | 27.8 | 225 | 569 |  |  |  |
| UUGAAGAAUUAAGGAUAUUGAUUACAUAUGUUAAACAUGAGGAUCACCCAUGUGGGUUGCGGUAUCGAGAAGGUAAAUUAAAAG [Mat - same State NG 2 - JL mod - D78] (Eterna round: R96, puzzle: Same State NG 2) |  |  |  | 171 | 123 | 146 |
